Common to all, as to assay: BLI
For experiment [1], the target named is T1, gamma RBD (SARS-CoV-2, UniProt P0DTC2).
In experiment [2] the target is T2, Wuhan RBD‐8his (SARS-CoV-2, UniProt P0DTC2).
The target in experiment [3] is T1, gamma RBD. The source holds these as a separate data set.
Experiment [4] has as its target T2, Wuhan RBD‐8his. This is another data set of the same source.

B1: sACE2_(2).v2.4(NN)‐IgG1 (Fc fusion)
chain: QSTIEEQAKYFLDKFNHEAEDLFYQSSLASWNYNTNITEENVQNMNNAGDKWSAFLKEQSTTAQMYPLQEIQNLTVKLQLQALQQNGSSVLSEDKSKRLNTILNTMSTIYSTGKVCNPDNPQECLLLEPGLNEIMANSLDYNERLWAWESWRSEVGKQLRPLYEEYVVLKNEMARANHYEDYGDYWRGDYEVNGVDGYDYSRGQLIEDVEHTFEEIKPLYEHLHAYVRAKLMNAYPSYISPIGCLPAHLLGDMWGRFWTNLYSLTVPFGQKPNIDVTDAMVDQAWDAQRIFKEAEKFFVSVGLPNMTQGFWEYSMLTDPGNVQKAVCHPTAWDLGKGDFRILMCTKVTMDDFLTAHNEMGNIQYDMAYAAQPFLLRNGANEGFHEAVGEIMSLSAATPKHLKSIGLLSPDFQEDNETEINFLLKQALTIVGTLPFTYMLEKWRWMVFKGEIPKDQWMKKWWEMKREIVGVVEPVPHDETYCDPASLFHVSNDYSFIRYYTRTLYQFQFQEALCQAAKHEGPLHKCDISNSTEAGQKLFNMLRLGKSEPWTLALENVVGAKNMNVRPLLNYFEPLFTWLKDQNKNSFVGWSTDWSPYADQSIKVRISLKSALGDKAYEWNDNEMYLFRSSVAYAMRQYFLKVKNQMILFGEEDVRVANLKPRISFNFFVTAPKNVSDIIPRTEVEKAIRMSRSRINDAFRLNDNSLEFLGIQPTLG
In the case of B1, the koff (usually a measure of how fast the partners let go of each other) with gamma RBD [1] amounted to 0.00043 s⁻¹; with Wuhan RBD‐8his [2], 0.00032 s⁻¹. The Kd with gamma RBD [3] and in the experiment with Wuhan RBD‐8his [4] was 0.5 nM each time.

For the origin of these results see PMC9539395 (2022).
